T1: RAB33B wild type, 6xHis, labeled with Tide Fluor 3 (human, UniProt Q9H082 1-229, labeled with Tide Fluor 3 (TF3) maleimide)
T1 construct: RAB33B, human; Loaded with GppNHp or GDP by nucleotide exchange; The crystal construct is 30–218; also called WT^GppNHp; WT^GDP
T1 sequence (looked up): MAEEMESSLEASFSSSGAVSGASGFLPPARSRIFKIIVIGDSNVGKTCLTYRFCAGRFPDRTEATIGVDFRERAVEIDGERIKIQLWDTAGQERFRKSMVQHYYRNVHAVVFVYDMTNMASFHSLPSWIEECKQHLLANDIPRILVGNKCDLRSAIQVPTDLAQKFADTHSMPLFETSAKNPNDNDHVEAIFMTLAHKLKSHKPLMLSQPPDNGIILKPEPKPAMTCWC

T2: RAB33B I66A, 6xHis, labeled with Tide Fluor 3 (human, UniProt Q9H082 1-229, I66A, labeled with Tide Fluor 3 (TF3) maleimide)
T2 construct: RAB33B, human, I66A; also called I66A^GppNHp
T2 sequence (looked up): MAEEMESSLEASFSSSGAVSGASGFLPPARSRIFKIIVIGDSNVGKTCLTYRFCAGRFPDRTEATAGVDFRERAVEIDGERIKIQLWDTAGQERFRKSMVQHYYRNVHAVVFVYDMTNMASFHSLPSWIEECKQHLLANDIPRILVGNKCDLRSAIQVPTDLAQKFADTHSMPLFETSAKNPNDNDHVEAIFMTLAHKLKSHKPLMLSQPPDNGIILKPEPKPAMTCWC

T3: RAB33B F95A, 6xHis, labeled with Tide Fluor 3 (human, UniProt Q9H082 1-229, F95A, labeled with Tide Fluor 3 (TF3) maleimide)
T3 construct: RAB33B, human, F95A; also called F95A^GppNHp
T3 sequence (looked up): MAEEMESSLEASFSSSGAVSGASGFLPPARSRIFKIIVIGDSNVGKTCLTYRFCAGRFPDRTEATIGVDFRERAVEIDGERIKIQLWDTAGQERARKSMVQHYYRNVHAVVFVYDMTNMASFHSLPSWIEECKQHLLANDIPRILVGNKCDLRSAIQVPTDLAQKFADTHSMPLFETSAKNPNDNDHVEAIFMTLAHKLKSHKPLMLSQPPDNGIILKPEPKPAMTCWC

T4: RAB33B K35A, 6xHis, labeled with Tide Fluor 3 (human, UniProt Q9H082 1-229, K35A, labeled with Tide Fluor 3 (TF3) maleimide)
T4 construct: RAB33B, human, K35A; also called K35A^GppNHp
T4 sequence (looked up): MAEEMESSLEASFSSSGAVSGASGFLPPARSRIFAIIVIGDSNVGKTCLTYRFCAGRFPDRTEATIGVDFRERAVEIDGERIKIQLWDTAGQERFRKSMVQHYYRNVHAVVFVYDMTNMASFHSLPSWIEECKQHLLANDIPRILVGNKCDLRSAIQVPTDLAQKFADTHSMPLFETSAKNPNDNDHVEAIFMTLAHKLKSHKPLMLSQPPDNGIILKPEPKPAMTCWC


Legend:
Conditions in all cases: both partners purified
[1] = target: T1, RAB33B wild type, 6xHis, labeled with …; test: MST; TF3-labeled RAB33B at 10 μM, GDP-bound; unlabeled ATG16L1(141–265) titrated from 400 μM to 12 nM; 20 mM HEPES pH 7.2, 25 mM NaCl, 2 mM DTE, 2 mM MgCl2, 0.05% Tween 20, 10 µM GDP
[2] = target: T2, RAB33B I66A, 6xHis, labeled with Tide …; test: MST; TF3-labeled RAB33B at 10 μM, GppNHp-bound; unlabeled ATG16L1(141–265) titrated from 400 μM to 12 nM; 20 mM HEPES pH 7.2, 25 mM NaCl, 2 mM DTE, 2 mM MgCl2, 0.05% Tween 20, 10 µM GppNHp
[3] = target: T3, RAB33B F95A, 6xHis, labeled with Tide …; test: as above
[4] = target: T1, RAB33B wild type, 6xHis, labeled with …; test: as above
[5] = target: T4, RAB33B K35A, 6xHis, labeled with Tide …; test: as above

Row | Kd [1] | Kd [2] | Kd [3] | Kd [4] | Kd [5] | Binder
1 | 0.213 µM | 25.9 µM | 17.1 µM | 0.095 µM | > 100 µM | ATG16L1(141–265) wild type, expressed separately (domain or fragment, UniProt Q8C0J2 141-265, looked up, pOPIN vector with GST tag; also called WT) LETNCLDLRTKLQDLEVANQTLKDEYDALQITFTALEEKLRKTTEENQELVTRWMAEKAQEANRLNAENEKDSRRRQARLQKELAEAAKEPLPVEQDDDIEVIVDETSDHTEETSPVRAVSRAAT
2 | – | – | – | 0.884 µM | – | ATG16L1(141–265) N209A (domain or fragment, UniProt Q8C0J2 141-265, looked up) LETNCLDLRTKLQDLEVANQTLKDEYDALQITFTALEEKLRKTTEENQELVTRWMAEKAQEANRLNAEAEKDSRRRQARLQKELAEAAKEPLPVEQDDDIEVIVDETSDHTEETSPVRAVSRAAT
3 | – | – | – | 3.38 µM | – | ATG16L1(141–265) N206A (domain or fragment, UniProt Q8C0J2 141-265, looked up) LETNCLDLRTKLQDLEVANQTLKDEYDALQITFTALEEKLRKTTEENQELVTRWMAEKAQEANRLAAENEKDSRRRQARLQKELAEAAKEPLPVEQDDDIEVIVDETSDHTEETSPVRAVSRAAT
4 | – | – | – | 24.1 µM | – | ATG16L1(141–265) N206A,N209A (domain or fragment, UniProt Q8C0J2 141-265, looked up) LETNCLDLRTKLQDLEVANQTLKDEYDALQITFTALEEKLRKTTEENQELVTRWMAEKAQEANRLAAEAEKDSRRRQARLQKELAEAAKEPLPVEQDDDIEVIVDETSDHTEETSPVRAVSRAAT
